# Source: patent publication US20210139581A1 (Alector, published 2021)
# Numbering of substitutions follows the chain as printed.
# B1: AB-H11 (antibody, V domains shown)
# VH: QVQLVQSGAEVKKPGASVKVSCKASGYTFTDYNLHWVRQAPGQSLEWIGFIYPSNGITGYSQKFQGKATLTVDTSASTAYMELSSLRSEDTAVYYCARSTVDYFDYWGQGTTVTVSS
# VL: DIQMTQSPSSLSASVGDRVTITCRASQSVSTSTYSYMHWYQQKPGKAPKLLIYYASNLESGVPSRFSGSGSGTDFTLTISSLQPEDFATYYCQHSWEIPLTFGQGTKLEIK
# notes: Humanized variant of murine 2F5.1
# B2: AB-H71 (antibody, V domains shown)
# VH: B1 VH with V11L, S44R
# VL: DIVLTQSPDSLAVSLGERATINCRASQSVSTSTYSYMHWYQQKPGQPPKLLIKYASNLESGVPDRFSGSGSGTDFTLTISSLQAEDVAVYYCQHSWEIPLTFGQGTKLEIK
# notes: Humanized variant of murine 2F5.1; also called AB-71
# B3: AB-H6 (antibody, V domains shown)
# VH: B1 VH with S44G, I48M, S61A, K67R, A68V, L70M, A76T
# VL: B1 VL
# notes: as for B1
# B4: AB-H3 (antibody, V domains shown)
# VH: B1 VH with V20I, S44G, S61A, K67R, A76T, T112L, V113L
# VL: B1 VL
# notes: as for B1
# B5: AB-H26 (antibody, V domains shown)
# VH: B1 VH with S44R, K67R
# VL: B1 VL with Y53K
# notes: Humanized variant of murine 2F5.1; also called AB-26
# B6: AB-H22 (antibody, V domains shown)
# VH: B1 VH with V20I, S44R, S61N, Q65K, G66N
# VL: B1 VL with Y53K
# notes: Humanized variant of murine 2F5.1; also called AB-22
# B7: AB-H1 (antibody, V domains shown)
# VH: B1 VH with S44G, I48M, S61A, K67R, A68V, L70M, V72R, A76T, A79V, T112L
# VL: B1 VL
# notes: as for B1
# B8: AB-H24 (antibody, V domains shown)
# VH: B1 VH with V20I, S44R
# VL: B1 VL with Y53K
# notes: Humanized variant of murine 2F5.1; also called AB-24
# B9: AB-14.1 (antibody, V domains shown)
# VH: QVQLVQSGAEVKKPGASVKVSCKASGATFTDYNFHWVRQAPGQGLEWIGFIYPSNGITGYAQDFQGRVTMTVDTSTSTVYMELSSLRSEDTAVYYCARSDVDYFDYWGQGTLVTVSS
# VL: B1 VL with Y53K
# B10: AB-14.5 (antibody, V domains shown)
# VH: B9 VH with A27Y, F34Y, D63K
# VL: B1 VL with S28D, Q42R, Y53K
# B11: AB-14.7 (antibody, V domains shown)
# VH: B9 VH with A27Y, F34Y, D63K
# VL: B1 VL with S30G, Y53K
# B12: AB-14.2 (antibody, V domains shown)
# VH: B9 VH with F34Y, D63K, G66D, D100F
# VL: B1 VL with S28D, Y53K
# B13: AB-14.4 (antibody, V domains shown)
# VH: B9 VH with A27Y, F34Y, D63K, R98D, D100T
# VL: B1 VL with S28D, Y53K, A55V
# B14: AB-14.6 (antibody, V domains shown)
# VH: B9 VH with A27Y, F34Y, D63K
# VL: B1 VL with S30G, Y53K, N57A
# B15: AB-14.3 (antibody, V domains shown)
# VH: B9 VH with A27Y, F34Y, Y60S, D63K
# VL: B1 VL with S28D, Y53K, A55V
# B16: AB-63.17 (antibody, V domains shown)
# VH: B9 VH with A27Y, F34Y, D63K
# VL: B2 VL with A25G, A55E
# B17: AB-63.18 (antibody, V domains shown)
# VH: B9 VH with A16S, A27Y, F29H, F34L, D63K
# VL: B2 VL with A55E
# B18: AB-63.16 (antibody, V domains shown)
# VH: B9 VH with A27Y, F34Y, D63K
# VL: B2 VL with S30H
# Biological target: T1, human CD33 (human, UniProt P20138 18-259, limits assumed)
# T1 construct: Human CD33 immobilized on the BLI sensor tip or the BIAcore C1 chip; also called Siglec-3
# T1 sequence (P20138 18-259 limits assumed): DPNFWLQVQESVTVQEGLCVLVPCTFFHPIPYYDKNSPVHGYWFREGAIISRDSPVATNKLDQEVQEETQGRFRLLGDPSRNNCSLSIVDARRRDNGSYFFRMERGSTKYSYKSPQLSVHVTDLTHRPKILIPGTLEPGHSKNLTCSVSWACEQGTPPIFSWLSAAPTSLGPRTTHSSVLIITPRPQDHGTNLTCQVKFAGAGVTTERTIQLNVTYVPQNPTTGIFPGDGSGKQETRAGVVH
# Test: SPR (BIAcore), Fab over CD33 on C1 chip
# Method: The affinity parameters for 10 of the 88 humanized antibodies (AB-H1, AB-H3, AB-H6, AB-H11, AB-H22, AB-H24, AB-H26, AB-H63, AB-H64, and AB-H71) were measured in a separate experiment by a more sensitive technique, surface plasmon resonance (BIAcore), and compared to Chimeric Ab and Chimeric Ab #2. BIAcore measurements were performed as follows: human CD33 was immobilized on the surface of a C1 chip, and Fabs were injected for 300 s to monitor association, followed by a 900 s flow in running buffer to monitor dissociation. The Fabs were measured at 5 concentrations: a high concentration of 27 nM and 3-fold serial dilutions.
Fold Change to Chimeric Ab,Kd,koff,kon,Binder
1.22 fold,1.33 nM,0.00162 s⁻¹,1.22e+06 M⁻¹ s⁻¹,B1
0.87 fold,1.88 nM,0.00351 s⁻¹,1.87e+06 M⁻¹ s⁻¹,B2
1.18 fold,1.37 nM,0.00151 s⁻¹,1.1e+06 M⁻¹ s⁻¹,B3
1.43 fold,1.13 nM,0.0014 s⁻¹,1.23e+06 M⁻¹ s⁻¹,B4
0.28 fold,5.86 nM,0.00234 s⁻¹,400000 M⁻¹ s⁻¹,B5
0.62 fold,2.63 nM,0.00182 s⁻¹,690000 M⁻¹ s⁻¹,B6
1.03 fold,1.58 nM,0.00186 s⁻¹,1.18e+06 M⁻¹ s⁻¹,B7
0.27 fold,6.02 nM,0.00228 s⁻¹,379000 M⁻¹ s⁻¹,B8

# Biological target: T2, human CD33 on primary human monocyte-derived dendritic cells (human, UniProt P20138 18-364)
# T2 sequence (P20138 18-364): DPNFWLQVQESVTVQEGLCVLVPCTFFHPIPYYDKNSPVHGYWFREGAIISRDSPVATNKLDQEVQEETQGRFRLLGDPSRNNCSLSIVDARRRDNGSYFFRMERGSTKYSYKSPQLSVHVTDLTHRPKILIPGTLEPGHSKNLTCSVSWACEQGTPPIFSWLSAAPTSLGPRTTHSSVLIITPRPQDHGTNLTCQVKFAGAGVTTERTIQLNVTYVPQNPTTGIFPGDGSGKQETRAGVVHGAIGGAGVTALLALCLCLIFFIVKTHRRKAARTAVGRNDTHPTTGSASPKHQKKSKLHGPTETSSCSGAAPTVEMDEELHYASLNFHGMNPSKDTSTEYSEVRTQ
# Test: cell-based or functional assay
Maximal Downregulation (% CD33 remaining),Receptor downregulation (EC50),Binder
18.6%,0.0927 nM,B9
26.4%,0.0342 nM,B10
23.4%,0.0351 nM,B11
23.8%,0.055 nM,B12
27.6%,0.0582 nM,B13
24%,0.0324 nM,B14
25.4%,0.043 nM,B15

# Biological target: T2, human CD33 on primary human …
# Test: cell-based or functional assay
# Remark: another data set of the same source
Maximal Downregulation (% CD33 remaining),Receptor downregulation (EC50),Binder
27.2%,0.0522 nM,B16
26.8%,0.0629 nM,B17
23.4%,0.0293 nM,B18

# Biological target: T2, human CD33 on primary human …
# Test: cell-based or functional assay
# Remark: another data set of the same source
Maximal Downregulation (% CD33 remaining),Receptor downregulation (EC50),Binder
23.3%,0.0772 nM,B1
25.8%,0.0412 nM,B2
20.6%,0.169 nM,B3
21.2%,0.0933 nM,B4
21.9%,0.0519 nM,B5
22.6%,0.0901 nM,B6
25%,0.127 nM,B7
22.2%,0.0725 nM,B8

# Biological target: T1, human CD33
# Test: BLI (ForteBio), Fab 100 nM on immobilized CD33
# Method: The affinities (KD) of the humanized antibodies for human CD33 were measured for each antibody by BioLayer Interferometry in a ForteBio assay according to standard techniques (Estep et al. (2013) MAbs 5(2): 270-8). […] The assay was carried out at room temperature.
# The affinities of AB-H14 and its affinity-matured variants (Table 15) and AB-H63 and its affinity-matured variants (Table 16), for human CD33 were measured by Fortebio assay according to the method described in Example 1 above.
Fold affinity improvement over parental Ab (AB-H14),Kd,koff,kon,Fold affinity improvement over parental Ab (AB-H63),Binder
9.73 fold,≤ 0.299 nM,≤ 0.0002 s⁻¹,670000 M⁻¹ s⁻¹,–,B9
–,0.613 nM,–,–,4.44 fold,B17
13.7 fold,0.212 nM,0.0002 s⁻¹,945000 M⁻¹ s⁻¹,–,B10
11.8 fold,0.246 nM,0.0002 s⁻¹,813000 M⁻¹ s⁻¹,–,B11
14.4 fold,0.202 nM,0.0002 s⁻¹,991000 M⁻¹ s⁻¹,–,B12
13 fold,0.224 nM,0.0002 s⁻¹,895000 M⁻¹ s⁻¹,–,B13
9.83 fold,0.295 nM,0.000264 s⁻¹,894000 M⁻¹ s⁻¹,–,B14
12.3 fold,0.236 nM,0.0002 s⁻¹,847000 M⁻¹ s⁻¹,–,B15
